The source of these data is publication PMC10746543 (2023).

Usually EC50 stands for the concentration at which the effect is half-maximal. A low value points to higher potency in that assay.

In experiment [1] the target is T1, _(Alexa488)DDB1 (human, UniProt Q16531 1-1140, SpyTag joined to SpyCatcher (S50C) labelled with Alexa488–C5–maleimide). As to the kind of experiment: FRET; compound Z7 titration.
For experiment [2], the target named is T1, _(Alexa488)DDB1. Put plainly: FRET; compound Z11 titration.
Experiment [3] has as its target T1, _(Alexa488)DDB1. As to the kind of experiment: FRET; compound Z12 titration.
In experiment [4] the target is T1, _(Alexa488)DDB1. As to the kind of experiment: FRET; compound HQ461 titration.
Experiment [5] has as its target T1, _(Alexa488)DDB1. Put plainly: FRET; compound dCeMM3 titration.

T1 sequence (Q16531 whole entry): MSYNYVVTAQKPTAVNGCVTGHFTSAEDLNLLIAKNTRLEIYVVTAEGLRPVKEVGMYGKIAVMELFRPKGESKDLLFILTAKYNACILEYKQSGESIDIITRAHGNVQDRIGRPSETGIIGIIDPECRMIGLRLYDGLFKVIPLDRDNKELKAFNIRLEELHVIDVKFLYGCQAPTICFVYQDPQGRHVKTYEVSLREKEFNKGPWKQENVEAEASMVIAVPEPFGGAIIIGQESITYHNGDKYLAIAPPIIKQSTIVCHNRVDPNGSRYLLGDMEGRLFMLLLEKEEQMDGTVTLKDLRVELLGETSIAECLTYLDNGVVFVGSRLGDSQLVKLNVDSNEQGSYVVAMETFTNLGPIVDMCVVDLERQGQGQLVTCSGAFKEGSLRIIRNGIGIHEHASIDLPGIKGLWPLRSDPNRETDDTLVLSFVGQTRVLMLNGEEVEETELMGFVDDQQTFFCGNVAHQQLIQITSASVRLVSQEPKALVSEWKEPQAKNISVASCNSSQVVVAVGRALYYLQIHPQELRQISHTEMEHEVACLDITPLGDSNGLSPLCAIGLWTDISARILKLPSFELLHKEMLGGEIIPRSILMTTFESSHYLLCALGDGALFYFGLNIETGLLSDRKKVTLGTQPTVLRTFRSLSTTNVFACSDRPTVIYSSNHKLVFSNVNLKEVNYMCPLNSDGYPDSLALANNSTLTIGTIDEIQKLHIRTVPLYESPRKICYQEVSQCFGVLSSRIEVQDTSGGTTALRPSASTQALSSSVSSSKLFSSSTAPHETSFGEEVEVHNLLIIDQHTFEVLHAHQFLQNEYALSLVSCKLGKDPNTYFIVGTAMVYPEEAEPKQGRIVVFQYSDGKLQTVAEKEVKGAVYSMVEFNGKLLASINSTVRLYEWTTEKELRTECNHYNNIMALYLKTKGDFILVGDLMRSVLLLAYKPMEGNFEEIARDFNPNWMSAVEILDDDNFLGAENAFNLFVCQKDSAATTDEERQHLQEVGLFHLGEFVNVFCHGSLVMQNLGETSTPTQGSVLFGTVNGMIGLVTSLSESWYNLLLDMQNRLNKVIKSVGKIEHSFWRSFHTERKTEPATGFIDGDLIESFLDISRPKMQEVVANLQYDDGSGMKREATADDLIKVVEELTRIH

B1: CDK12–cyclin K_(biotin) (complex)
chain 1: not shown
chain 2: MKENKENSSPSVTSANLDHTKPCWYWDKKDLAHTPSQLEGLDPATEARYRREGARFIFDVGTRLGLHYDTLATGIIYFHRFYMFHSFKQFPRYVTGACCLFLAGKVEETPKKCKDIIKTARSLLNDVQFGQFGDDPKEEVMVLERILLQTIKFDLQVEHPYQFLLKYAKQLKGDKNKIQKLVQMAWTFVNDSLCTTLSLQWEPEIIAVAVMYLAGRLCKFEIQEWTSKPMYRRWWEQFVQDVPVDVLEDICHQILDLYSQGKQQMPH
modifications: biotin on the Avi tag (enzymatic, BirA)
Turning to B1, the EC50 with _(Alexa488)DDB1 [1] is 303 nM; in the experiment with _(Alexa488)DDB1 [2] it was 178 nM; in the experiment with _(Alexa488)DDB1 [3], 833 nM; with _(Alexa488)DDB1 [4], 43 nM; in the experiment with _(Alexa488)DDB1 [5] it was 263 nM.
